The results in this text go back to patent US20250186541A1, “DLL3 TARGETING PEPTIDES AND CONSTRUCTS THEREOF” (MARIANA ONCOLOGY INC., priority 2023, published 2025).

One may read the Kd as the free concentration of one partner at which half of the binding sites on the other are occupied at equilibrium, for simple one-to-one binding.

Sequences and labels used below:
B1: Cpd #41 (peptide)
peptide: {DOTA}-[Ahx]SDCWLQWNCP[hPhe]D-NH2
modifications: disulfide 4-10
SMILES: CC(C)C[C@@H]1NC(=O)[C@H](Cc2c[nH]c3ccccc23)NC(=O)[C@@H](NC(=O)[C@H](CC(=O)O)NC(=O)[C@H](CO)NC(=O)CCCCCNC(=O)CN2CCN(CC(=O)O)CCN(CC(=O)O)CCN(CC(=O)O)CC2)CSSC[C@@H](C(=O)N2CCC[C@H]2C(=O)N[C@@H](CCc2ccccc2)C(=O)N[C@@H](CC(=O)O)C(N)=O)NC(=O)[C@H](CC(N)=O)NC(=O)[C@H](Cc2c[nH]c3ccccc23)NC(=O)[C@H](CCC(N)=O)NC1=O
B2: Cpd #27 (peptide)
peptide: Ac-MSDCWLQWNCAFD-NH2
modifications: disulfide 4-10
SMILES: CSCC[C@H](NC(C)=O)C(=O)N[C@@H](CO)C(=O)N[C@@H](CC(=O)O)C(=O)N[C@H]1CSSC[C@@H](C(=O)N[C@@H](C)C(=O)N[C@@H](Cc2ccccc2)C(=O)N[C@@H](CC(=O)O)C(N)=O)NC(=O)[C@H](CC(N)=O)NC(=O)[C@H](Cc2c[nH]c3ccccc23)NC(=O)[C@H](CCC(N)=O)NC(=O)[C@H](CC(C)C)NC(=O)[C@H](Cc2c[nH]c3ccccc23)NC1=O
B3: Cpd #28 (peptide)
peptide: Ac-MSDCWLQWNCPAD-NH2
modifications: disulfide 4-10
SMILES: CSCC[C@H](NC(C)=O)C(=O)N[C@@H](CO)C(=O)N[C@@H](CC(=O)O)C(=O)N[C@H]1CSSC[C@@H](C(=O)N2CCC[C@H]2C(=O)N[C@@H](C)C(=O)N[C@@H](CC(=O)O)C(N)=O)NC(=O)[C@H](CC(N)=O)NC(=O)[C@H](Cc2c[nH]c3ccccc23)NC(=O)[C@H](CCC(N)=O)NC(=O)[C@H](CC(C)C)NC(=O)[C@H](Cc2c[nH]c3ccccc23)NC1=O
B4: Cpd #29 (peptide)
peptide: Ac-MSDCWLQWNCPFA-NH2
modifications: disulfide 4-10
SMILES: CSCC[C@H](NC(C)=O)C(=O)N[C@@H](CO)C(=O)N[C@@H](CC(=O)O)C(=O)N[C@H]1CSSC[C@@H](C(=O)N2CCC[C@H]2C(=O)N[C@@H](Cc2ccccc2)C(=O)N[C@@H](C)C(N)=O)NC(=O)[C@H](CC(N)=O)NC(=O)[C@H](Cc2c[nH]c3ccccc23)NC(=O)[C@H](CCC(N)=O)NC(=O)[C@H](CC(C)C)NC(=O)[C@H](Cc2c[nH]c3ccccc23)NC1=O
B5: Cpd #49 (peptide)
peptide: Ac-MSDCWLQWNC[NMeA]FD[dK](DOTA)-NH2
modifications: disulfide 4-10
SMILES: CSCC[C@H](NC(C)=O)C(=O)N[C@@H](CO)C(=O)N[C@@H](CC(=O)O)C(=O)N[C@H]1CSSC[C@@H](C(=O)N(C)[C@@H](C)C(=O)N[C@@H](Cc2ccccc2)C(=O)N[C@@H](CC(=O)O)C(=O)N[C@H](CCCCNC(=O)CN2CCN(CC(=O)O)CCN(CC(=O)O)CCN(CC(=O)O)CC2)C(N)=O)NC(=O)[C@H](CC(N)=O)NC(=O)[C@H](Cc2c[nH]c3ccccc23)NC(=O)[C@H](CCC(N)=O)NC(=O)[C@H](CC(C)C)NC(=O)[C@H](Cc2c[nH]c3ccccc23)NC1=O
B6: Cpd #61 (peptide)
peptide: Ac-MSDCWLQ[1Nal]NCPFD[dK](DOTA)-NH2
modifications: disulfide 4-10
SMILES: CSCC[C@H](NC(C)=O)C(=O)N[C@@H](CO)C(=O)N[C@@H](CC(=O)O)C(=O)N[C@H]1CSSC[C@@H](C(=O)N2CCC[C@H]2C(=O)N[C@@H](Cc2ccccc2)C(=O)N[C@@H](CC(=O)O)C(=O)N[C@H](CCCCNC(=O)CN2CCN(CC(=O)O)CCN(CC(=O)O)CCN(CC(=O)O)CC2)C(N)=O)NC(=O)[C@H](CC(N)=O)NC(=O)[C@H](Cc2cccc3ccccc23)NC(=O)[C@H](CCC(N)=O)NC(=O)[C@H](CC(C)C)NC(=O)[C@H](Cc2c[nH]c3ccccc23)NC1=O
B7: Cpd #46 (peptide)
peptide: Ac-MSDCWLQWNC[5,5‑diMe‑P]FD[dK](DOTA)-NH2
modifications: disulfide 4-10
SMILES: CSCC[C@H](NC(C)=O)C(=O)N[C@@H](CO)C(=O)N[C@@H](CC(=O)O)C(=O)N[C@H]1CSSC[C@@H](C(=O)N2[C@H](C(=O)N[C@@H](Cc3ccccc3)C(=O)N[C@@H](CC(=O)O)C(=O)N[C@H](CCCCNC(=O)CN3CCN(CC(=O)O)CCN(CC(=O)O)CCN(CC(=O)O)CC3)C(N)=O)CCC2(C)C)NC(=O)[C@H](CC(N)=O)NC(=O)[C@H](Cc2c[nH]c3ccccc23)NC(=O)[C@H](CCC(N)=O)NC(=O)[C@H](CC(C)C)NC(=O)[C@H](Cc2c[nH]c3ccccc23)NC1=O
B8: Cpd #50 (peptide)
peptide: Ac-MSDCWLQWNC[dNMeA]FD[dK](DOTA)-NH2
modifications: disulfide 4-10
SMILES: CSCC[C@H](NC(C)=O)C(=O)N[C@@H](CO)C(=O)N[C@@H](CC(=O)O)C(=O)N[C@H]1CSSC[C@@H](C(=O)N(C)[C@H](C)C(=O)N[C@@H](Cc2ccccc2)C(=O)N[C@@H](CC(=O)O)C(=O)N[C@H](CCCCNC(=O)CN2CCN(CC(=O)O)CCN(CC(=O)O)CCN(CC(=O)O)CC2)C(N)=O)NC(=O)[C@H](CC(N)=O)NC(=O)[C@H](Cc2c[nH]c3ccccc23)NC(=O)[C@H](CCC(N)=O)NC(=O)[C@H](CC(C)C)NC(=O)[C@H](Cc2c[nH]c3ccccc23)NC1=O

Numbered stars: 1 amine (or outer) side, 2 acyl side, 3 side chain; on linkers, the order of the positions; unused ones are H or OH. Bridge positions count the residues as written; N and C are the ends. Square brackets hold non-standard residues; d marks the D form. * marks the point of attachment. 5,5‑diMe‑P = 5,5-dimethyl-L-proline, CC1(C)CC[C@@H](C(=O)[*:2])N1[*:1]; DOTA = O=C(O)CN1CCN(CC(=O)O)CCN(CC(=O)*)CCN(CC(=O)O)CC1; Pro(4,4-F2) = O=C(O)[C@@H]1CC(F)(F)CN1; 1Nal = N[C@@H](Cc1cccc2ccccc12)C(=O)O; cisHyp = O=C(O)[C@@H]1C[C@H](O)CN1; hPhe = N[C@@H](CCc1ccccc1)C(=O)O; αMeP = C[C@@]1(C(=O)O)CCCN1; NMeA = CN[C@@H](C)C(=O)O; dNMeA = CN[C@H](C)C(=O)O; Aze = O=C(O)[C@@H]1CCN1; Ahx = NCCCCCC(=O)O

In this assay the target is T1, Biotinylated human DLL3 (human, UniProt Q9NYJ7 27-492, biotinylated (site not stated)).
T1 construct: also called Delta-like ligand 3; Delta Like Canonical Notch Ligand 3
T1 sequence (looked up): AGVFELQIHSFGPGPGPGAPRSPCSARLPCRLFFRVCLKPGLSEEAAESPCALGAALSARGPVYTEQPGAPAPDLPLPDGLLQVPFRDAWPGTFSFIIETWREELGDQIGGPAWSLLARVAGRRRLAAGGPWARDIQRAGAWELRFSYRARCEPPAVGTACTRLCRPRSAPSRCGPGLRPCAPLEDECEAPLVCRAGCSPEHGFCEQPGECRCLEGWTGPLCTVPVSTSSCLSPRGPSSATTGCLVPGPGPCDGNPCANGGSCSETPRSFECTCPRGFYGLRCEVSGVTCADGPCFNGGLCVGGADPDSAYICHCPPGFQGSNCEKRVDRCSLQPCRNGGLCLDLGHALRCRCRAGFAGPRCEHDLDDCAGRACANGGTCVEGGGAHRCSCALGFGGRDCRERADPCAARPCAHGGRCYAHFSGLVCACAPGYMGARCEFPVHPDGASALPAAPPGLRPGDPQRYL
Description: SPR, biotin-hDLL3 on SA chip. On the technique in general: In SPR one partner is held on a chip, and binding of the other changes the refractive index at the surface.
In turn, B1 showed a Kd of 83 nM.
Still for that read-out and setting: the value for Ac-MSDCWLQWNC[Aze]FD[dK](DOTA)-NH2 (disulfide 4-10) [Cpd #48] was 64 nM.
Regarding B2, the binding result is recorded as “no binding”.
B3: the binding result is reported as “no binding”.
With B4, the binding result was “no binding”.
B5 displayed a Kd of 19.6 nM.
On the same count and under the same terms, with B6 the figure was 2.72 nM; with B7, 12 nM; with Ac-MSDCWLQWNC[cisHyp]FD[dK](DOTA)-NH2 (disulfide 4-10) [Cpd #45], 40.6 nM.
Molecule Ac-MSDCWLQWNCPFD[dK](DOTA)-NH2 (disulfide 4-10) [Cpd #30] showed a Kd of 8.6 nM.
The same measure, in the same setting: the value for Ac-[dK]SDCWLQWNCPFD[dK](DOTA)-NH2 (disulfide 4-10) [Cpd #84] was 29 nM.
The molecule Ac-KSDCWLQWNCPFD[dK](DOTA)-NH2 (disulfide 4-10) [Cpd #83] registered a Kd of 32 nM.
Ac-MSDCWLQWNC[Pro(4,4-F2)]FD[dK](DOTA)-NH2 (disulfide 4-10) [Cpd #52] displayed a dissociation constant Kd of 17 nM.
With Ac-MSDCWLQWNC[αMeP]FD[dK](DOTA)-NH2 (disulfide 4-10) [Cpd #51], the affinity, expressed as Kd, was 2.6 nM.
In turn, B8 gave an equilibrium dissociation constant (Kd) of 4.94 nM.
In turn, Ac-SDCWLQWNCPFD[dK](DOTA)-NH2 (disulfide 3-9) [Cpd #31] registered a Kd of 25.5 nM.
